Source: the supplement of paper PMC10567573

B1: CLPTM1 (parent)
chain: MNLHVYISEHEHFTDFNATSALFW
B2: VDR (parent)
chain: LIKFQVGLKKLNLHEEEHVLLMAI

Variants of: B1
Assay: protein stability index of a GFP-peptide fusion (GPS, HEK-293T) (PSI 1-6); higher = more stable
Conditions: c terminus: a fixed tail appended
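Also: lentivirally expressed fusions sorted by FACS into six bins by GFP to DsRed ratio, PSI derived from sequencing read proportions per bin multiplied by bin number.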

Variant	protein stability index
MNLHVYISEHEHFTDFNATGALFW	2.69
MNLHVYISEHEHFTDFNATHALFW	4.53
MNLHVYISEHEHFTDFNATIALFW	2.69
MNLHVYISEHEHFTDFNATKALFW	3.57
MNLHVYISEHEHFTDFNATMALFW	2.64
MNLHVYISEHEHFTDFNATNALFW	3.39
MNLHVYISEHEHFTDFNATQALFW	2.59
MNLHVYISEHEHFTDFNATRALFW	2.1
MNLHVYISEHEHFTDFNATTALFW	4.14
MNLHVYISEHEHFTDFNATVALFW	2.29
MNLHVYISEHEHFTDFNATYALFW	3.45
MNLHVYISEHEHFTDFNATSCLFW	3.19
MNLHVYISEHEHFTDFNATSELFW	2.62
MNLHVYISEHEHFTDFNATSFLFW	1.95
MNLHVYISEHEHFTDFNATSGLFW	3.69
MNLHVYISEHEHFTDFNATSHLFW	2.09
MNLHVYISEHEHFTDFNATSILFW	2.59
MNLHVYISEHEHFTDFNATSKLFW	3.78
MNLHVYISEHEHFTDFNATSNLFW	2.35
MNLHVYISEHEHFTDFNATSTLFW	2.67

Variant	protein stability index
MNLHVYISEHEHFTDFNATSVLFW	2.4
MNLHVYISEHEHFTDFNATSAAFW	4.09
MNLHVYISEHEHFTDFNATSACFW	4.78
MNLHVYISEHEHFTDFNATSAGFW	4
MNLHVYISEHEHFTDFNATSAHFW	2.6
MNLHVYISEHEHFTDFNATSAIFW	1.59
MNLHVYISEHEHFTDFNATSAQFW	3.16
MNLHVYISEHEHFTDFNATSARFW	1.1
MNLHVYISEHEHFTDFNATSASFW	1.97
MNLHVYISEHEHFTDFNATSATFW	3.54
MNLHVYISEHEHFTDFNATSAYFW	2.2
MNLHVYISEHEHFTDFNATSALCW	2.69
MNLHVYISEHEHFTDFNATSALDW	3.62
MNLHVYISEHEHFTDFNATSALEW	1.81
MNLHVYISEHEHFTDFNATSALHW	3.78
MNLHVYISEHEHFTDFNATSALIW	3.19
MNLHVYISEHEHFTDFNATSALLW	5.95
MNLHVYISEHEHFTDFNATSALNW	2.46
MNLHVYISEHEHFTDFNATSALPW	2.49
MNLHVYISEHEHFTDFNATSALQW	2.56

Variant	protein stability index
MNLHVYISEHEHFTDFNATSALRW	2.46
MNLHVYISEHEHFTDFNATSALVW	2.13
MNLHVYISEHEHFTDFNATSALYW	5.1
MNLHVYISEHEHFTDFNATSALFC	1.83
MNLHVYISEHEHFTDFNATSALFD	3.34
MNLHVYISEHEHFTDFNATSALFE	4.09
MNLHVYISEHEHFTDFNATSALFF	4.25
MNLHVYISEHEHFTDFNATSALFH	1.75
MNLHVYISEHEHFTDFNATSALFI	1.93
MNLHVYISEHEHFTDFNATSALFK	1.88
MNLHVYISEHEHFTDFNATSALFL	4.15
MNLHVYISEHEHFTDFNATSALFN	2.98
MNLHVYISEHEHFTDFNATSALFP	2.76
MNLHVYISEHEHFTDFNATSALFQ	2.2
MNLHVYISEHEHFTDFNATSALFR	2.96
MNLHVYISEHEHFTDFNATSALFS	3.64
MNLHVYISEHEHFTDFNATSALFT	3.19
MNLHVYISEHEHFTDFNATSALFY	2.95

Variants of: B2
Assay: as above
Conditions: c terminus: a fixed tail appended

Variant	protein stability index
DIKFQVGLKKLNLHEEEHVLLMAI	2.9
EIKFQVGLKKLNLHEEEHVLLMAI	1.56
FIKFQVGLKKLNLHEEEHVLLMAI	2.01
HIKFQVGLKKLNLHEEEHVLLMAI	2.73
IIKFQVGLKKLNLHEEEHVLLMAI	3.18
MIKFQVGLKKLNLHEEEHVLLMAI	3.33
NIKFQVGLKKLNLHEEEHVLLMAI	2.01
QIKFQVGLKKLNLHEEEHVLLMAI	2.25
SIKFQVGLKKLNLHEEEHVLLMAI	3.27
VIKFQVGLKKLNLHEEEHVLLMAI	2.24
LAKFQVGLKKLNLHEEEHVLLMAI	3.06
LDKFQVGLKKLNLHEEEHVLLMAI	2.05
LFKFQVGLKKLNLHEEEHVLLMAI	2.27
LHKFQVGLKKLNLHEEEHVLLMAI	1.87
LLKFQVGLKKLNLHEEEHVLLMAI	3.02
LMKFQVGLKKLNLHEEEHVLLMAI	3.15
LNKFQVGLKKLNLHEEEHVLLMAI	2.31
LPKFQVGLKKLNLHEEEHVLLMAI	2.73

Variant	protein stability index
LQKFQVGLKKLNLHEEEHVLLMAI	3.14
LRKFQVGLKKLNLHEEEHVLLMAI	4.27
LTKFQVGLKKLNLHEEEHVLLMAI	2.77
LVKFQVGLKKLNLHEEEHVLLMAI	3
LYKFQVGLKKLNLHEEEHVLLMAI	2.93
LIDFQVGLKKLNLHEEEHVLLMAI	2.21
LIGFQVGLKKLNLHEEEHVLLMAI	3.98
LIPFQVGLKKLNLHEEEHVLLMAI	1.89
LIQFQVGLKKLNLHEEEHVLLMAI	1.21
LITFQVGLKKLNLHEEEHVLLMAI	2.97
LIWFQVGLKKLNLHEEEHVLLMAI	2.91
LIKAQVGLKKLNLHEEEHVLLMAI	2.1
LIKCQVGLKKLNLHEEEHVLLMAI	3
LIKDQVGLKKLNLHEEEHVLLMAI	3.17
LIKEQVGLKKLNLHEEEHVLLMAI	2.15
LIKHQVGLKKLNLHEEEHVLLMAI	1.91
LIKIQVGLKKLNLHEEEHVLLMAI	3.75
LIKKQVGLKKLNLHEEEHVLLMAI	3.04
